Publication PMC12108899

Molecular target: hemocyanin from Macrobrachium acanthurus (Macrobrachium acanthurus)
Experiment: AUC; sedimentation velocity, HcMac at 100, 200 and 300 ug/mL, Tris-HCl 100 mmol/L with NaCl 50 mmol/L, pH 7.0, 20 °C, absorbance at 280 nm, SEDFIT c(S) and c(M); single 19S species of about 450 kDa; hexamer of monomeric subunits

stoichiometry N: 6
Substance: hemocyanin from Macrobrachium acanthurus (natural protein)
